According to the supplement of paper PMC7877785:
± gives the uncertainty stated by the source.

Assay: self-splicing fitness, log relative to wild type (ln ratio); higher = more splicing; Tetrahymena group I intron in knt gene, E. coli kanamycin selection, DiMSum; sequences stand for … in CUCUCU…GGAGGGAAAAGUUAUCAGGCAUGCACCUGGUAGCUAGUCUUUAAACCAAUAGAUUGCAUCGGUUUAAAAGGCAAGACCGUCAAAUUGCGGGAAAGGGGUCAACAGCCGUUCAGUACCAAGUCUCAGGGGAAACUUUGAGAUGGCCUUGCAAAGGGUAUGGUAAUAAGCUGACGGACAUGGUCCUAACCACGCAGCCAAGUCCUAAGUCAACAGAUCUUCUGUUGAUAUGGAUGCAGUUCACAGACUAAAUGUCGGUCGGGGAAGAUGUAUUCUUCUCAUAAGAUAUAGUCGGACCUCUCCUUAAUGGGAGCUAGCGGAUGAAGUGAUGCAACACUGGAGCCGCUGGGAACUAAUUUGUAUGCGAAAGUAUAUUGAUUAGUUUUGGAGUACUCGUGGUCG
Procedure, shortened: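 Colonies from six replicate transformations of E. coli BL21(DE3) were pooled and amplicon-sequenced on an Illumina HiSeq 2500. The library placed an intron with all eight P1ex-region nucleotides randomised inside the knt kanamycin-resistance gene on pET-22b(+), and cells grew overnight at 37°C or 30°C on LB agar with or without 25 μg/mL kanamycin (plus 100 μg/mL carbenicillin, 50 μM IPTG, 0.2% rhamnose). Fitness is the DiMSum error-weighted combination of wild-type-normalised replicate fold changes, kanamycin versus none.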

| Sequence | self-splicing fitness (ln) (30 °C) | self-splicing fitness (ln) (37 °C) |
| --- | --- | --- |
| CGAUAGCAAUAUUACGGAGU | -2.09 ± 0.16 | -3.36 ± 0.32 |
| CGAUAGCAAUAUUACGGCUC | -2.44 ± 0.14 | -1.15 ± 0.17 |
| CGAUAGCAAUAUUACGGUUC | -3.63 ± 0.27 | -1.96 ± 0.16 |
| CGAUAGCAAUAUUACGUACA | -1.98 ± 0.13 | -0.0364 ± 0.14 |
| CGAUAGCAAUAUUACGUACG | -1.83 ± 0.097 | -1.05 ± 0.1 |
| CGAUAGCAAUAUUACGUCAG | -1.39 ± 0.13 | -1.25 ± 0.14 |
| CGAUAGCAAUAUUACGUCCC | -1.28 ± 0.23 | -0.717 ± 0.28 |
| CGAUAGCAAUAUUACGUUGC | -4.22 ± 0.34 | -3.8 ± 0.22 |
| CGCAAGCAAUAUUACGAAGA | -2.75 ± 0.21 | -1.73 ± 0.17 |
| CGCAAGCAAUAUUACGACCC | -2.18 ± 0.3 | 0.0863 ± 0.29 |
| CGCAAGCAAUAUUACGACCU | -0.793 ± 0.092 | -0.711 ± 0.12 |
| CGCAAGCAAUAUUACGACGG | 0.00768 ± 0.061 | 0.452 ± 0.08 |
| CGCAAGCAAUAUUACGAGCU | -0.541 ± 0.063 | -0.633 ± 0.078 |
| CGCAAGCAAUAUUACGAGUG | -1.99 ± 0.057 | -1.72 ± 0.084 |
| CGCAAGCAAUAUUACGAGUU | -3.26 ± 0.13 | -1.45 ± 0.1 |
| CGCAAGCAAUAUUACGAUUC | -3.18 ± 0.18 | -2.17 ± 0.15 |
| CGCAAGCAAUAUUACGCAGA | -2.26 ± 0.15 | -1.78 ± 0.16 |
| CGCAAGCAAUAUUACGCAGG | -2.74 ± 0.12 | -1.01 ± 0.12 |
| CGCAAGCAAUAUUACGCCGA | -2.85 ± 0.26 | -2 ± 0.18 |
| CGCAAGCAAUAUUACGCCGG | -0.626 ± 0.12 | -0.476 ± 0.17 |
| CGCAAGCAAUAUUACGCGCG | -3.11 ± 0.12 | -2.51 ± 0.16 |
| CGCAAGCAAUAUUACGGACC | -1.72 ± 0.1 | -0.3 ± 0.14 |
| CGCAAGCAAUAUUACGGCUC | -1.94 ± 0.14 | -1.43 ± 0.15 |
| CGCAAGCAAUAUUACGGUUC | -4.01 ± 0.23 | -2.6 ± 0.16 |

| Sequence | self-splicing fitness (ln) (30 °C) | self-splicing fitness (ln) (37 °C) |
| --- | --- | --- |
| CGCAAGCAAUAUUACGGUUU | -2.95 ± 0.17 | -2.53 ± 0.18 |
| CGCAAGCAAUAUUACGUCGG | -0.371 ± 0.061 | -0.192 ± 0.089 |
| CGCAAGCAAUAUUACGUGCC | -0.772 ± 0.073 | -1.13 ± 0.11 |
| CGCAAGCAAUAUUACGUUAU | -3.78 ± 0.24 | -2.44 ± 0.14 |
| CGCAAGCAAUAUUACGUUCC | -2.95 ± 0.15 | -1.06 ± 0.12 |
| CGCAAGCAAUAUUACGUUUU | -4.46 ± 0.15 | -2.83 ± 0.16 |
| CGCCAGCAAUAUUACGAAUC | -2.75 ± 0.16 | -2.92 ± 0.26 |
| CGCCAGCAAUAUUACGACAU | -3.741 ± 0.023 | -2.75 ± 0.038 |
| CGCCAGCAAUAUUACGACGA | -2.77 ± 0.15 | -1.48 ± 0.14 |
| CGCCAGCAAUAUUACGACUU | -3.35 ± 0.2 | -1.82 ± 0.18 |
| CGCCAGCAAUAUUACGAGAC | -3.23 ± 0.33 | -3.54 ± 0.46 |
| CGCCAGCAAUAUUACGAGAG | -3.58 ± 0.13 | -1.37 ± 0.098 |
| CGCCAGCAAUAUUACGAGCG | -2.66 ± 0.17 | -2.56 ± 0.23 |
| CGCCAGCAAUAUUACGAGUU | -3.19 ± 0.15 | -3.16 ± 0.2 |
| CGCCAGCAAUAUUACGAUCC | -3.12 ± 0.37 | – |
| CGCCAGCAAUAUUACGAUCU | -2.5 ± 0.26 | -2.42 ± 0.35 |
| CGCCAGCAAUAUUACGCCAG | -0.963 ± 0.12 | -0.172 ± 0.15 |
| CGCCAGCAAUAUUACGCUAU | -3.43 ± 0.15 | -3.01 ± 0.21 |
| CGCCAGCAAUAUUACGGCAA | -0.604 ± 0.087 | -0.186 ± 0.088 |
| CGCCAGCAAUAUUACGGCAC | -2.37 ± 0.1 | -1.04 ± 0.097 |
| CGCCAGCAAUAUUACGGGGU | -3.35 ± 0.15 | -2.36 ± 0.17 |
| CGCCAGCAAUAUUACGGUAA | -0.8 ± 0.069 | 0.0236 ± 0.072 |
| CGCCAGCAAUAUUACGGUAU | -2.65 ± 0.088 | -0.699 ± 0.1 |
